The DeepSol protein solubility set

Assay: soluble on expression in E. coli; label from the status in PepcDB or PDB records
With “ADTRIGVTIYKYDDNFMSVVRKAIEKDGKSAPDVQLLMNDSQNDQSKQNDQIDVLLAKGVKALAINLVDPAAAGTVIEKARGQNVPVVFFNKEPSRKALDSYDKAYYVGTDSKESGVIQGDLIAKHWQANQGWDLNKDGKIQYVLLKGEPGHPDAEARTTYVVKELNDKGIQTEQLALDTAMWDTAQAKDKMDAWLSGPNANKIEVVIANNDAMAMGAVEALKAHNKSSIPVFGVDALPEALALVKSGAMAGTVLNDANNQAKATFDLAKNLAEGKGAADGTSWKIENKIVRVPYVGVDKDNLSEFTQK” the “soluble on expression in E. coli” value was “soluble”. For “MGSDKIHHHHHHMTKEQNSTENLDFQSPSDDTNLEGDFTADIVALAAKVEVQIQKIAERQRQISAKVQIPQPVEKIWKVLTDYEALPDFLPNLAKSRLIEHPNGGIRLEQVGSQRLLNFNFSARVVLDLEECFPREINFRMVEGDFKGFSGSWCLEPYSLGEYIGTNLCYTIQVWPKLTMPVGIIENRLSKDLRLNLVAIHQRVEELANKQPYI”, the “soluble on expression in E. coli” value was “not soluble”. In the case of “MGSDKIHHHHHHMNFDVAIIGGGLAGLTCAIALQQRGKRCVIINNGQAAIDFASGSLDLLSRMPSTTYGENRAVENLKENITALRNELPAHPYSLLGAEKVLAKAQDFERLANELHLDLIGSTEKNHWRVTGLGSLRGAWLSPNSVPTVQGNEPFPHKRIAVLGIEGYHDFQPQLLAANLVLNPQFEHCEVTSGFLNIPQLDELRKNAREFRSVNISQLLEHKLAFKDLVKEIIESAQGAEAVFLPACFGLENQEFMTALRDATKLALFELPTLPPSLLGMRQRIQLRHKFESLGGLMINGDSALNATFEGNQVRCINTRLLEDEEITADNFVLASGSFFSKGLISEFDKIYEPVFESDIIGVEGFNNKDRFTWTAHRFAHPQPYQSAGVAINAQCQVKKCGQFLTNLYAVGNVIGGFNALELGCGSGVAVVTALAVADEILAK”, the “soluble on expression in E. coli” value is reported as “not soluble”. For “GMYLKELSMMPGVSGDEGKVRDFIKSKIEGLVDNLYTDVLGNLIALKRGRDSSKKLLVSAHMDEVGFVVSKIEKDGKVSFLPVGGVDPRILPGKVVQVKNLKGVIGYRPIHLQRDEENTPPRFENLRIDFGFSSADEAKKYVSIGDYVSFVSDYIEKNGRAVGKAFDDRAGCSVLIDVLESGVSPAYDTYFVFTVQEETGLRGSAVVVEQLKPTCAIVVETTTAGDNPELEERKWATHLGDGPAITFYHRGYVIPKEIFQTIVDTAKNNDIPFQMKRRTAGGTDAGRYARTAYGVPAGVISTPARYIHSPNSIIDLNDYENTKKLIKVLVEEGKIVEVVS”, the “soluble on expression in E. coli” value was “soluble”. With “MGLIIYHKGGRKMKKNILIVGGGPEITICYDLINNSTEYNFFSVSEIPTMYPELFVETIETSFRNFGKTIEQIKELKYSIDAVACWDEALTHIADDISKELGLNPISSLDSQSFRFKDRMRMVCEAGGLKMPKYKIINQFSDTNKIINWKYPLIVKPTSFLASIGVKKVYNFSELQQAVSQMLNVKFPVYIASGVYELGELYNLEPRVLVEEFIDGEEYSLESVVRNGIYTPLGITKKIVDEKLFMDEIGHIFPSNLNKEEKSRVYSWAEKLHQILQLNHITTHTEFRIGRNGDIILIEIGARIGGDCIPNLMKNSFIVKGFDFYNTYLKARLGLQEELNTDTNKFSGIVFFRLNPENYGKIFNGVSYDAPKTSLIFEEKIYKKEGTVLPNPINWSNERVGYVCLENKEYAVLEKEMKEILKSLSIE” the “soluble on expression in E. coli” value was “not soluble”. In the case of “MSLEPVQDDSVSGNFYISGKYMPSASHFGVFSAKEEKNPTVALYGLKQDWNGVSASSHADADFNNKGYSFKYENNPFLGFAGAIGYSMGGPRIEFEVSYETFDVKNQGGNYKNDAHRYCALDRKASSTNATASHYVLLKNEGLLDISLMLNACYDVVSEGIPFSPYICAGVGTDLISMFEAINPKISYQGKLGLSYSINPEASVFVGGHFHKVAGNEFRDISTLKAFATPSSAATPDLATVTLSVCHFGVELGGRFNFEGHHHHHH”, the “soluble on expression in E. coli” value is reported as “not soluble”. For “MTDSTIRIAIVGAGGRMGRQLIQAVTQMEGVVLGAAIERKGSTLVGSDAGELAGVGLLNVIVGDDLSQLTDNFDVLIDFTRPEGTLEHLAICRQHRKAMVIGTTGFDEAGKAAISEAAADIGIVFAANFSVGVNVVLKLLEKAAKVMGDYTDIEIIEAHHRHKVDAPSGTALAMGEAIADAMGRSLKDCAVYSREGYTGERKPGTIGFATVRAGDIVGEHTAMFADIGERVEITHKATSRMTFAHGAVKSAIWLGKHDNGLFDMRDVLNLNEL”, the “soluble on expression in E. coli” value was “soluble”. For “MERSALVTGGASGLGRAAALALKARGYRVVVLDLRREGEDLIYVEGDVTREEDVRRAVARAQEEAPLFAVVSAAGVGLAEKILGKEGPHGLESFRRVLEVNLLGTFNVLRLAAWAMRENPPDAEGQRGVIVNTASVAAFEGQIGQAAYAASKGGVVALTLPAARELAGWGIRVVTVAPGLFDTPLLQGLPEKAKASLAAQVPFPPRLGRPEEYAALVLHILENPMLNGEVVRLDGALRMAPR”, the “soluble on expression in E. coli” value was “soluble”. With “MSLSSMLPSISPELARIAPGFRALSINVIAAPVRDAQVGEIALKEACQAVINGQPAWAQAHIDAWNAVFKAFGAKPKRTPCSAEALRKRVLKDGTMAALDPVVDLYNAVSLRYAVPVGGENSAAYCGSPRLVFADGSETFDTLKEGKPVTESPEPGEVIWRDDRGVTCRRWNWRQGVRTRLSASDKMMWFILESLPEMPVDELYAAENMLTDGLEKMMPGLRFESTLIGVEGHHHHHH” the “soluble on expression in E. coli” value was “not soluble”. With “MAPKRLMVEHALARAKEAAGLADVKKVYTYYGDEACTVFIGRTKQGKAVVVWVPEKKGSVVVKGVDSGISEAEARAILQRDRRPRRIIDATLGMEKGVPLWELTYIDAEGRYSFYYLHFADGAFLKRYSFQQ” the “soluble on expression in E. coli” value was “not soluble”. For “MFREESRSVPVEEGEVYDVTIQDIARQGDGIARIEGFVIFVPGTKVGDEVRIKVERVLPKFAFASVVE”, the “soluble on expression in E. coli” value was “soluble”. With “MRIHNDKNDHGDNNEIMDYILEKYKPLVRKKTNALYLIGGENDDLIQEGMIGLFKAVRDYKSDKEASFYSFAQLCITRQLSSALEASNRKKHMPLNTYISFSQSDSDGTEFEEMLQDDIASPEQLLIEKEKFKEFKEQLWNKLSNMEKKVLQLYLEGNNYTSIAHMLGKSDKSIDNALSRIRQKLKRK” the “soluble on expression in E. coli” value was “not soluble”. For “MGSDKIHHHHHHLFDRYEAGETAVLVHIDFTDEGSREDLAELQLLVESAGARSVGVITGSRRAPDRKFFVGTGKAEELAAMVAATDANVVIFNHALSPAQERNLEHLCRCRVLDRTTLILDIFAQRARTHEGKLQVELAQLRHMSTRLVRGWTHLERQKGGIGLRGPGETQLETDRRLLRGRIKNINRRLEKVDKQREQSRRARQRSDMAAVSLVGYTNAGKSTLFNTLTSAEVYAADQLFATLDPTLRKLELPDGAAILADTVGFIRHLPHDLVAAFKATLQETREADLLLHVIDCADEKMRDNIEQVQAVLKEIDADEIPQLIVCNKIDLVEGIKPAIDRDDTGKPFRVWLSAQQNQGLDLLRQAVQELVGNVIAELTLKIPATAGHYLGQFYRLDAIQQKEYDDLGNCILSVRLPDADWRRLAKQSQGELETFIVDTATDRVVC”, the “soluble on expression in E. coli” value was “not soluble”. In the case of “MSLGMAAWDRNSINPLQAYVYKTSKLPFYDENLHNLAEKIAPHCLLAHLRGVSYHDKQVVTDQNVHPFLYPVTSIALAHNGMLHNFETMRYDLLKYVKTEYRKYIKGTTDSEWIYAVFLSQLENPKGHFDASEIINAVIATLKILKTVRQQNNIVINSPVNLFLTNGDFIAATRFCLDYGWKPKDATQSTHFTYHSLWYTYGERYGFYENEYKMKGGTINSSIIIASEPLTENTTTWLEVPEYTLIFANQVDGEIKITSQDINEGHHHHHH”, the “soluble on expression in E. coli” value is reported as “not soluble”. With “MKMKKITAMSMAALMAATMIPSVPVMADGGGKVYYLNFKPEQDEAWQNLAKAYTEETGTDVTVVTAASGQYETTLQSEMAKSDAPTLFQVNGPVGLKNWKDYCYDLKDADITKELTSDAYELKDGDAVAGIAYVIESYGLITNKTLLEKAGYTLDDIKSFDDLKKVADDIQARKDEIGVKGAFTSAGMDGSSDWRFKTHLANLPIYYEYKADGIDDTEAIKGTYLDQYKNVFDLYITDSTCDGSELSAKTADDSRNEFVNGDAVFYQNGSWEYAELAKTYSDDELAMIPIYFGVDDENEGLATGTENYWCVNKNASEEDVQATLDFMNWCVTSEAGTKSMSEDMGFTIPFKTAVAPTNVFVKQDAEYTEAGLTPVSWNFTTMPSEEWKNGLGTALTAYAAGTGDWDAVVSAFVDGWATEKALSE” the “soluble on expression in E. coli” value was “not soluble”. In the case of “MQTGRQQNKGTIFASLNMSRKNRHNVLPRATMLRKKAIQIRLNEAEHKAVETYCSRFKVENRSRWIRETLMKEVIHRLESDTPLLFREEEMR”, the “soluble on expression in E. coli” value is reported as “not soluble”. In the case of “MGSDKIHHHHHHMNMEINPSEYKILIVDDVMSNVLLLKVLLTNEKFNIVTASNGNQALDQVKKENPDLILLDVMMPDMSGFEVSQKLKADPEAAHIPIIFLTALNSTADIVKGFQVGGNDFISKPFNKEELIIRVSHQISLVAAKRIIEAKTEELKKTIIGRDKLYSVIAHDLRSPMGSIKMVLNMLILSLPKEKIGEDMYELLTMANQTTEDVFSLLDNLLKWTKSQIGKLKVVYQDIDMVEVVEGVGEIFAMVAGLKNIRLRIESPECQAVHADIDMIKTVIRNLISNAIKFSNEGSEVLIKVEESDGMSVVSVKDSGCGIDEESQKKLLHTDTHFSTFGTNNEEGSGLGLLLCQDFVVKNGGKLWFTSVKDEGSTFYFSIPLKK”, the “soluble on expression in E. coli” value is reported as “not soluble”. With “MTDKLPLALFLMGPTASGKTELAIRLRQKFPVEIISVDSALIYKGMDIGTAKPDERELSLAPHRLIDILDPSESYSAADFRRDALQAMDDIVAEGKIPLLVGGTMLYYKALLEGLSPLPAANPEIRQQIEQEALTKGWSVLHDELKEIDPVSAARIHPNDPQRLSRALEVYRISGKTLTELTQTKGESLPYRVKQFAIAPKDRAELHRRIELRFDKMMEAGFEEEMKALYARKDLHPDLPSIRCVGYRQMWEYLDGECTRDEAVFRGVCATRQLAKRQITWLRSWDDLTWLDSDNIEQALETMSEAIASDLEHHHHHH” the “soluble on expression in E. coli” value was “soluble”. In the case of “MGSDKIHHHHHHMREQLDQVGSGGVTGATGLLGNNLVRELVARGYTVKGLVRSKAKGEQQFNNLPGVELVVGDMAEVDAFAASLQGCDTVFHTASFFRDNYKGGSHWKELEQINVSGTRRLLEQAYGAGIRRFIHTSSIAVLNGAPGTSIEENCLRADADADDYYRSKILADRVVLSFLESHPQMHACMVLPGWMWGPGDVGPTSSGQLVNDVVQGKLPGLIPGSFSIVDARDVALAHIAAARHGRRGERYLAAGRHMTMRELMPVLGRMAGVKTPARQIPLPFLYTLAAVQEIYARLTGRPILLSMATLRLLVREQDRTRFDHRKSEQELGLSFRALELTIADTVAWYRDHGWFEKGSRL”, the “soluble on expression in E. coli” value is reported as “not soluble”. For “MKKHIIIKTIPKKEEIISRDLCDCIYYYDNSVICKPIGPSKVYVSTSLENLEKCLQLHYFKKLVKNIEIFDEVHNSKPNCDKCLIVEIGGVYFVRRVNGVPR”, the “soluble on expression in E. coli” value was “soluble”. For “MSLRVVLKLGTSVLTAGTDRLHRPRLVDLMRDIAAVSAQGHEVVLVSSGAVTAGWEALGFPPRERTLAEKQLLAAVGQVQLMHLYTSLAELYGLRSAQLLLTADDFRERTRYLNARTTLEGCLSRGVLPVINENDTVAVEQIKVGDNDTLSAFVANLVEADLLLILTDAPGLYTADPRTHPDATLIPVVERVTPDIWALAGGAGSHRGTGGMHTKIQAAEIATRAGTPVVIAPGDLPEALRRVVDGEALGTRFLAHGTRLEARKRWILAEIAHGRLLLDGGAAQAVRERGSSLLPAGIRQVEGDFERGHTVRLLAPDGQELGRGLTRYRADDLRRVCGHHSREIEALLGYTYGEEAVHRDDLVLLEGHHHHHH”, the “soluble on expression in E. coli” value was “soluble”.
